Experimental data from patent publication US20110104705A1, “Musclin receptor and use thereof” (Takeda Pharmaceutical Company Limited, priority 2006, published 2011).

Target: T1, hNpr3 (Homo sapiens, UniProt P17342)
T1 construct: host or cells: FreeStyle293 cells (transient transfection)
T1 sequence (P17342 27-540 isoform P17342-2 limits assumed): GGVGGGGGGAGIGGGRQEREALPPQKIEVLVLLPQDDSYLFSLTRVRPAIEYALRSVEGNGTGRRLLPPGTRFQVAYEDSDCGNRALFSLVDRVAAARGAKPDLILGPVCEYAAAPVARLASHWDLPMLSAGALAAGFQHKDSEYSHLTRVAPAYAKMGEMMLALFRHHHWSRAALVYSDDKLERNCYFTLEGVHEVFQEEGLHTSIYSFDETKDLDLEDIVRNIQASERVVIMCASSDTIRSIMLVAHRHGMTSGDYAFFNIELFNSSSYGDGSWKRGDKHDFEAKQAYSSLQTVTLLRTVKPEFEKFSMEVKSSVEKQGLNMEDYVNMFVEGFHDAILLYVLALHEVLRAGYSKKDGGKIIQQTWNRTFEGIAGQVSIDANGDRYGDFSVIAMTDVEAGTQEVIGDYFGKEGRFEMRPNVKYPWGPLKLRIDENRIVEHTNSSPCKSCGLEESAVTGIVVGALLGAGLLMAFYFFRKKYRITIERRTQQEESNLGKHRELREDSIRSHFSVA
Assay: Binding of biotin-labeled mMusclin to hNpr3-expressing FreeStyle293 cells (PE-labeled Streptavidin staining), with competition by unlabeled ligands
Details: for change in the binding of labeled mMusclin in the presence of a known NPR3 ligand: competitor at 10 μM; for change in the binding of labeled mMusclin in the presence of a known NPR3 ligand / change in the binding of labeled mMusclin in the presence of the unlabeled protein: BK- or BC-labeled mMusclin 0.5 μg/ml, hNpr3-expressing FreeStyle293 cells; for change in the binding of labeled mMusclin in the presence of the unlabeled protein: competitor at 100 μg/ml; for binding of labeled mMusclin to cells transfected with hNpr3 expression vector: 0.5 μg/ml labeled mMusclin, 4° C. 30 minutes, 0.3 μg (Low) or 1.0 μg (high) hNpr3 vector per 1.0×10^6 FreeStyle293 cells
Protocol: A hNpr3 expression vector (hNpr3/pCMV6-XL4, NM_000908 Clone #PL1154_A07) was purchased from OriGene. 0.3 μg (Low) or 1.0 μg (high) of the hNpr3 expression vector was transfected transiently per 1.0×10^6 FreeStyle293 cells by a conventional method; 48 hours later, the cells were collected and suspended in PBS-1.0% BSA at 5×10^6 cells/ml. A 1-ml portion of each cell lyzate was incubated with a final concentration of 0.5 μg/ml of BK-mMusclin or BC-mMusclin at 4° C. for 30 minutes; after 1 time of washing, the lyzate was stained with PE-labeled Streptavidin, and the cells bound to each Musclin were analyzed. Also, incubation was performed in the presence of 100 μg/ml full-length mMusclin, mCA, or His-Tyr-Cys-mMusclin, or 10 μM ANP (Atrial Natriuretic Peptide, Rat, Mouse), CANP (Atrial Natriuretic Peptide 4-23—NH2 Des-[Gln18 Ser19 Gly20 Leu21 Gly22], Rat), or LANP (Atrial Natriuretic Peptide 104-126 Des-[Cys105 Cys121], Rat) (Phoenix Pharmaceuticals, Inc.), whereby changes in the binding of labeled mMusclin were examined.

For “Atrial Natriuretic Peptide 4-23—NH2 Des-[Gln18 Ser19 Gly20 Leu21 Gly22], Rat [CANP, reference compound]”, the “change in the binding of labeled mMusclin in the presence of a known NPR3 ligand” value (shortened to “change in the binding … of a known NPR3 ligand”) was “the binding nearly disappeared”.

For “Atrial Natriuretic Peptide 104-126 Des-[Cys105 Cys121], Rat (SFGGRIDRIGAQSGLGNSFRY) [LANP, known ligand of the NPR3 molecule (Phoenix Pharmaceuticals, Inc.), reference compound]”, the “change in the binding … of a known NPR3 ligand” value was “the binding nearly disappeared”.

In the case of “Atrial Natriuretic Peptide, Rat, Mouse (SLRRSSCFGGRIDRIGAQSGLGCNSFRY) [ANP, known ligand of the NPR3 molecule (Phoenix Pharmaceuticals, Inc.), reference compound]”, the “change in the binding … of a known NPR3 ligand” value is reported as “the binding nearly disappeared”.

With “mCA: C-Terminal mMusclin (mCA) protein, cleaved from thioredoxin fusion (SFSGFGSPLDRLSAGSVEHRGKQRKAVDHSKKRFGIPMDRIGRNRLSSSRG)” the “change in the binding of labeled mMusclin in the presence of the unlabeled protein” value (“change in the binding … of the unlabeled protein” below) was “the binding nearly disappeared”.

B1: BC-labeled mMusclin: His-Tyr-Cys-mMusclin labeled with about 1 molecule of biotin at the introduced Cys residue (Maleimide PEO2 Biotin) (protein)
chain: MGSSHHHHHHSSGLVPYGCHMLASQEFGTASLQSPPTAREEKSATELSAKLLRLDDLVSLENDVFETKKKRSFSGFGSPLDRLSAGSVEHRGKQRKAVDHSKKRFGIPMDRIGRNRLSSSRG
B1 was tested, and the “binding of labeled mMusclin to cells transfected with hNpr3 expression vector” value was “bound dependently on the amount of the hNpr3 gene introduced into the cells”.

B2: His-Tyr-Cys-mMusclin: His-tag Tyr Cys mouse musclin protein, ORF of SEQ ID NO:8 (protein)
chain: MGSSHHHHHHSSGLVPYGCHMLASQEFGTASLQSPPTAREEKSATELSAKLLRLDDLVSLENDVFETKKKRSFSGFGSPLDRLSAGSVEHRGKQRKAVDHSKKRFGIPMDRIGRNRLSSSRG
modifications: His-tag, Tyr, Cys
B2 was tested, and the “change in the binding … of the unlabeled protein” value was “the binding nearly disappeared”.

B3: BK-labeled mMusclin: labeled mMusclin incorporating about 5 molecules of biotin/1 molecule of mMusclin (Sulfo-NHS-LC-Biotin) (protein)
chain: LASQEFGTASLQSPPTAREEKSATELSAKLLRLDDLVSLENDVFETKKKRSFSGFGSPLDRLSAGSVEHRGKQRKAVDHSKKRFGIPMDRIGRNRLSSSRG
With B3 the “binding of labeled mMusclin to cells transfected with hNpr3 expression vector” value was “bound dependently on the amount of the hNpr3 gene introduced into the cells”.

B4: full-length mMusclin: purified full-length mouse musclin protein, cleaved from thioredoxin fusion, expressed in Escherichia coli (protein)
chain: LASQEFGTASLQSPPTAREEKSATELSAKLLRLDDLVSLENDVFETKKKRSFSGFGSPLDRLSAGSVEHRGKQRKAVDHSKKRFGIPMDRIGRNRLSSSRG
For B4, the “change in the binding … of the unlabeled protein” value was “the binding nearly disappeared”.

B5: musclin: skeletal muscle specific secretory protein (protein, UniProt P61366 28-133, looked up)
Osteocrin: VDVTTTEAFDSGVIDVQSTPTVREEKSATDLTAKLLLLDELVSLENDVIETKKKRSFSGFGSPLDRLSAGSVDHKGKQRKVVDHPKRRFGIPMDRIGRNRLSNSRG
With B5 the “bindability of musclin to natriuretic peptide receptors (NPR1, NPR2, NPR3)” value (summary statement) was “binds specifically to the receptor NPR3”.
